Patent US20200377604A1 (Genentech, published 2020)

Target: T1, knob Fc F241R/F243S (Homo sapiens (Human), UniProt P0DOX5 223-449 = IgG part, F241R; F243S)
T1 construct: Positions are EU numbers; the entry starts at 221; also called Knob F241R/F243S; F241R/F243S mutant knob
Test: SPR (BioRad ProteOn), immobilized ligand Knob F241R/F243S, analyte Knob F241S/F243R at 6.25-200 nM
Experimental: FIGS. 11A-11E are a series of the surface plasmon resonance (SPR) spectra curves from experiments using an immobilized ligand. The analyte was passed over the ligand and the homodimerization was monitored. Analyte concetrations were tested at 6.25 nM, 12.5 nM, 25 nM, 50 nM, 100 nM and 200 nM. The ligands were: (A) The knob wild-type, (B) hole wild-type, (C) knob F241R/F243S, (D) knob F241S/F243R, and (E) hole F241S/F243R.
Using a BioRad ProteOn™ system, knob wild-type, hole wild-type, knob F241R/F243S, knob F241S/F243R, and hole F241S/F243R ligands were immobilized on an NHS activated sensor. The analyte, knob F241S/F243R, was passed over the sensor in 25 mM Tris 150 mM NaCl 0.05% Tween-20 pH 8.0. Analyte concentrations were 200 nM, 100 nM, 50 nM, 25 nM, 12.5 nM, and 6.25 nM. The ProteOnM chip was regenerated between each analyte concentration using 10 mM Glycine pH3. […] The Kd for the heterodimers is in the single digit nanomolar range in both cases.

B1: knob Fc F241S/F243R (other, name in EU numbering)
chain: DKTHTSPPSPAPELLGGPSVSLRPPKPKDTLMISRTPEVTCVVVDVSHEDPEVKFNWYVDGVEVHNAKTKPREEQYNSTYRVVSVLTVLHQDWLNGKEYKCKVSNKALPAPIEKTISKAKGQPREPQVYTLPPSREEMTKNQVSLWCLVKGFYPSDIAVEWESNGQPENNYKTTPPVLDSDGSFFLYSKLTVDKSRWQQGNVFSCSVMHEALHNHYTQKSLSLSPGK
notes: Positions are EU numbers; the entry starts at 221; This was the analyte in the SPR experiment; also called Knob F241S/F243R; F241S/F243R mutant knob
binding result: no binding (tested: 200 nM)
